Key:
[1] = system: rabbit anti-human IgG Fc-specific monoclonal (RAH) (rabbit); assay: ITC; settings: unlabeled IgG; 80 uM aptamer into 2.5 uM IgG; ITC: PBS (10 mM phosphate, 2.7 mM KCl, 137 mM NaCl, pH 7.4), 25 C; FRET: Ex 550 nm, Em 620/670 nm, titration buffer not stated
[2] = system: purified whole IgG from rabbit serum (polyclonal) (rabbit); assay: ITC; settings: unlabeled IgG; 80 uM aptamer into 2.5 uM IgG; ITC: PBS (10 mM phosphate, 2.7 mM KCl, 137 mM NaCl, pH 7.4), 25 C; FRET: Ex 550 nm, Em 620/670 nm, titration buffer not stated
[3] = system: ALEXA-594-labeled rabbit anti-human IgG Fc-specific monoclonal (594-RAH) (rabbit); assay: FRET titration; settings: apparent Kd, ITC: PBS (10 mM phosphate, 2.7 mM KCl, 137 mM NaCl, pH 7.4), 25 C, FRET: Ex 550 nm, Em 620/670 nm, titration buffer not stated

## CCAACCACACATCCTTCCATCGACATGGACCCACCGTTCC [AptaShield DNA aptamer]
[1]
  Kd: 224 nM
[2]
  Kd: 890 nM
[3]; RAH-594 titrated into 200 nM aptamer
  Kd: 95 nM
[3]; aptamer titrated into 200 nM RAH-594
  Kd: 44.5 nM
